The text below walks through data of paper PMC5382266 (Nature Communications, 2017).

To fix the notation:
T1: TSLPR^N47Q (human, UniProt Q9HC73-1 23-221, N47Q)
T1 construct: signal peptide in the construct; extracellular fragment of human TSLPR, NP_071431.2, residues 1-221, N-glycosylation mutant N47Q; also called EndoH-treated TSLPR^N47Q
T1 sequence (looked up): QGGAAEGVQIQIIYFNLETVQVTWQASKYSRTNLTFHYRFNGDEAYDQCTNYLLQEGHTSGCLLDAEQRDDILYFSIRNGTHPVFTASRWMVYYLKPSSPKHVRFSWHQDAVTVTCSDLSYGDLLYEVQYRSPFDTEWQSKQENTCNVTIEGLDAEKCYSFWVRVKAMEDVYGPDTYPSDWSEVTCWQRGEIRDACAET

T2: full-length HA-tagged human IL-7Rα (human, UniProt P16871-1 21-459)
T2 sequence (looked up): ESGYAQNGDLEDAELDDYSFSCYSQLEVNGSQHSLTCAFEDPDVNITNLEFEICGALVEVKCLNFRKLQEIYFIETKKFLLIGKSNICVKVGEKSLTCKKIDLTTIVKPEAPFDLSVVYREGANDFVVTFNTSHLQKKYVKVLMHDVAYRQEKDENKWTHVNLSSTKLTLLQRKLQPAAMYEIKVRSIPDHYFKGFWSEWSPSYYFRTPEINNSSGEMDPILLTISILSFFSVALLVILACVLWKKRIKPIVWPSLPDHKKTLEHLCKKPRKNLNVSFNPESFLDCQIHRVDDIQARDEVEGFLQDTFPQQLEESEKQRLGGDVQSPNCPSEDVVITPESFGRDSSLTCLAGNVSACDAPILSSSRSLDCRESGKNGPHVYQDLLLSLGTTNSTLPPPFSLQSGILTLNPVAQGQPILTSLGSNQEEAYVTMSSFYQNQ

B1: TSLP^Δ127–131 (ligand, human, UniProt Q969D9-1 29-159, looked up)
chain: YDFTNCDFEKIKAAYLSTISKDLITYMSGTKSTEFNNTVSCSNRPHCLTEIQSLTFNPTAGCASLAKEMFAMKTKAALAIWCPGYSETQINATQAMKKVTTNKCLEQVSQLQGLWRRFNRPLLKQQ
notes: His tag removed with thrombin; also called non-glycosylated human TSLP lacking a basic cassette; not shown: His6, N-terminal, cleaved
B2: refolded IL-7Rα ectodomain (domain or fragment, human, UniProt P16871-1 21-239, looked up)
chain: ESGYAQNGDLEDAELDDYSFSCYSQLEVNGSQHSLTCAFEDPDVNITNLEFEICGALVEVKCLNFRKLQEIYFIETKKFLLIGKSNICVKVGEKSLTCKKIDLTTIVKPEAPFDLSVVYREGANDFVVTFNTSHLQKKYVKVLMHDVAYRQEKDENKWTHVNLSSTKLTLLQRKLQPAAMYEIKVRSIPDHYFKGFWSEWSPSYYFRTPEINNSSGEMD
notes: extracellular fragment of human IL-7Rα, NP_002176.2, residues 21-239; His tag removed with thrombin; also called IL-7Rα ectodomain (E. coli); not shown: His6, N-terminal, cleaved
B3: soluble IL-7Rα ectodomain (domain or fragment, human, UniProt P16871-1 21-239, looked up)
chain: B2 chain
notes: signal peptide in the construct; extracellular fragment of human IL-7Rα, NP_002176.2, residues 1-239; also called interleukin 7 receptor α-chain
B4: TSLP-trap2 (other, human)
chain: ESGYAQNGDLEDAELDDYSFSCYSQLEVNGSQHSLTCAFEDPDVNITNLEFEICGALVEVKCLNFRKLQEIYFIETKKFLLIGKSNICVKVGEKSLTCKKIDLTTIVKPEAPFDLSVVYREGANDFVVTFNTSHLQKKYVKVLMHDVAYRQEKDENKWTHVNLSSTKLTLLQRKLQPAAMYEIKVRSIPDHYFKGFWSEWSPSYYFRTPEINNSSGEMDGGSGGSGGSGGSGGSGGSGGSGGSGGSGGSGGSGGSGGSGGSGGSGGSGGSGGSGGSGGSQGGAAEGVQIQIIYFNLETVQVTWNASKYSRTNLTFHYRFNGDEAYDQCTNYLLQEGHTSGCLLDAEQRDDILYFSIRNGTHPVFTASRWMVYYLKPSSPKHVRFSWHQDAVTVTCSDLSYGDLLYEVQYRSPFDTEWQSKQENTCNVTIEGLDAEKCYSFWVRVKAMEDVYGPDTYPSDWSEVTCWQRGEIRDACAETPTPPKPKLSK
B5: soluble TSLPR ectodomain (domain or fragment, human, UniProt Q9HC73-1 23-221, looked up)
chain: T1 sequence (looked up) with Q25N
B6: TSLPR-Asp157Ala/Glu159Ala (receptor)
chain: QGGAAEGVQIQIIYFNLETVQVTWNASKYSRTNLTFHYRFNGDEAYDQCTNYLLQEGHTSGCLLDAEQRDDILYFSIRNGTHPVFTASRWMVYYLKPSSPKHVRFSWHQDAVTVTCSDLSYGDLLYEVQYRSPFATAWQSKQENTCNVTIEGLDAEKCYSFWVRVKAMEDVYGPDTYPSDWSEVTCWQRGEIRDACAETPTPPKPKLSKFILISSLAILLMVSLLLLSLWKLWRVKKFLIPSVPDPKSIFPGLFEIHQGNFQEWITDTQNVAHLHKMAGAEQESGPEEPLVVQLAKTEAESPRMLDPQTEEKEASGGSLQLPHQPLQGGDVVTIGGFTFVMNDRSYVAL
B7: TSLPR-Asp176Ala/Glu178Ala/Lys179Ala (receptor)
chain: B6 chain with A135D, A137E, D154A, E156A, K157A
B8: TSLPR-Phe156Ala/Asp157Ala/Glu159Ala (receptor)
chain: B6 chain with F134A
B9: full-length FLAG-tagged human TSLPR (receptor, UniProt Q9HC73-1 23-371, looked up)
chain: B6 chain with A135D, A137E
B10: TSLP-trap1 (other, human)
chain: QGGAAEGVQIQIIYFNLETVQVTWNASKYSRTNLTFHYRFNGDEAYDQCTNYLLQEGHTSGCLLDAEQRDDILYFSIRNGTHPVFTASRWMVYYLKPSSPKHVRFSWHQDAVTVTCSDLSYGDLLYEVQYRSPFDTEWQSKQENTCNVTIEGLDAEKCYSFWVRVKAMEDVYGPDTYPSDWSEVTCWQRGEIRDACAETPTPPKPKLSKGGSGGSGGSGGSGGSGGSGGSGGSGGSGGSGGSGGSGGSGGSGGSGGSGGSGGSGGSGGSESGYAQNGDLEDAELDDYSFSCYSQLEVNGSQHSLTCAFEDPDVNITNLEFEICGALVEVKCLNFRKLQEIYFIETKKFLLIGKSNICVKVGEKSLTCKKIDLTTIVKPEAPFDLSVVYREGANDFVVTFNTSHLQKKYVKVLMHDVAYRQEKDENKWTHVNLSSTKLTLLQRKLQPAAMYEIKVRSIPDHYFKGFWSEWSPSYYFRTPEINNSSGEMD
notes: signal peptide in the construct; extracellular domain of human TSLPR, NP_071431.2, residues 1-231 (native secretion signal of TSLPR used); flexible (Gly-Gly-Ser)20 linker, written out from the printed formula; extracellular part of human IL-7Rα, NP_002176.2, residues 21-239; also called Human TSLP-trap1; hTSLPtrap1
B11: TSLP-Arg149Ser (ligand, human, UniProt Q969D9-1 29-159, looked up)
chain: YDFTNCDFEKIKAAYLSTISKDLITYMSGTKSTEFNNTVSCSNRPHCLTEIQSLTFNPTAGCASLAKEMFAMKTKAALAIWCPGYSETQINATQAMKKARKSKVTTNKCLEQVSQLQGLWSRFNRPLLKQQ
B12: TSLP-Arg153Ser (ligand, human, UniProt Q969D9-1 29-159, looked up)
chain: B11 chain with S121R, R125S
B13: TSLP-Arg150Ser (ligand, human, UniProt Q969D9-1 29-159, looked up)
chain: B11 chain with S121R, R122S
B14: TSLP-Arg149Ser/Arg150Ser (ligand, human, UniProt Q969D9-1 29-159, looked up)
chain: B11 chain with R122S

Assay [1] has as its target T1, TSLPR^N47Q. Kind of assay: SEC-MALS; Superdex 200 Increase 10/300 GL, HBS pH 7.4, 0.5 ml/min, 25 °C; glycan-minimized ternary complex. Particulars: both partners purified. In general terms: In gel filtration, larger molecules generally elute earlier.
Assay [2] has as its target T3, binary TSLP^Δ127–131:TSLPR^N47Q complex (human, UniProt Q969D9-1 29-159; Q9HC73-1 23-221, Δ127–131 | N47Q).
T3 construct: as the chain of m8; signal peptide in the construct; extracellular fragment of human TSLPR, NP_071431.2, residues 1-221, N47Q; as the chain of m9; also called TSLP:TSLPR^N47Q complex; not shown: His6, N-terminal, cleaved; copies: 1 + 1
The assay is described as above. Particulars: both partners purified.

In assay [3] the target is T4, preformed TSLP:TSLPR binary complex (human, UniProt Q969D9-1 29-159; Q9HC73-1 23-221, R127A | R130S, biotin, C-terminal (in vivo biotinylation)).
T4 construct: signal peptide in the construct; as the chain of m1; extracellular fragment of human TSLPR, NP_071431.2, residues 1-221; as the chain of m2; 320 nM TSLPR was kept in the kinetics buffer and in all IL-7Rα samples; also called TSLP:TSLPR complex; not shown: Avi tag (from the vector pHL-AVITAG), C-terminal, kept
Put plainly: BLI; TSLP-loaded biosensors incubated with 320 nM TSLPR, which was also in the assay buffer and all IL-7Rα samples; PBS with 0.01% BSA and 0.002% Tween 20, 25 °C; 1:1 model. Particulars: both partners purified. (BLI is a label-free optical method that tracks binding on a fibre tip over time.)

Assay [4] deals with wild type TSLP (TSLP^R127A/R130S) (human, UniProt Q969D9-1 29-159, R127A | R130S). Put plainly: cell-based or functional assay.
Assay [5] deals with T2, full-length HA-tagged human IL-7Rα.
The target is the same in assay [6]. Put plainly: cell-based or functional assay.
In assay [7] the target is T5, biotinylated TSLP^R127A/R130S (human, UniProt Q969D9-1 29-159, R127A | R130S, biotin, C-terminal (in vivo biotinylation)).
T5 construct: signal peptide in the construct; glycosylated, mammalian-derived; also called thymic stromal lymphopoietin; source: HEK293T, co-transfected with pDisplay-BirA-ER, purified from conditioned medium (IMAC, SEC); not shown: Avi tag (from the vector pHL-AVITAG), C-terminal, kept
Kind of assay: BLI; biotinylated TSLP^R127A/R130S on streptavidin biosensors, analyte in solution; PBS with 0.01% BSA and 0.002% Tween 20, 25 °C, Octet RED96; 1:1 model. As to conditions: both partners purified.

Assay [8] has as its target B9. Kind of assay: cell-based or functional assay.

Positions count from the first letter of the chain named.

With B1, the “stoichiometry N” value in assay [1] stood at 1. In the case of B2, the “stoichiometry N” value in assay [2] came out at 1. B3: in assay [3], the Kd was found to be 29 nM, the koff was determined as 0.0036 s⁻¹ and the kon is 123000 M⁻¹ s⁻¹. As for B4, the “IC50 of inhibition of STAT5 activity induced by 10 pM TSLP in HEK293T cells expressing TSLPR and IL-7Rα” value in assay [4] was found to be 44 pM. Consider B5, for which the “IC50 of inhibition of STAT5 activity induced by 10 pM TSLP by an equimolar mixture of the soluble TSLPR and IL-7Rα ectodomains” value in assay [4] is 49 nM. For B6, the EC50 of TSLP-induced STAT5 activity in cells expressing mutant TSLPR and IL-7Rα in assay [5] was 0.085 nM. For B7, in assay [5], the EC50 of TSLP-induced STAT5 activity in cells expressing mutant TSLPR and IL-7Rα was determined as 0.049 nM. In turn, B8 yielded an EC50 of TSLP-induced STAT5 activity in cells expressing mutant TSLPR and IL-7Rα in assay [5] of 0.4 nM. Turning to B9, in assay [6], the “EC50 of TSLP-induced STAT5 activity in cells expressing WT TSLPR and IL-7Rα (control of the site III mutants)” value is 0.011 nM.

For B10, the “IC50 of inhibition of STAT5 activity induced by 10 pM TSLP in HEK293T cells expressing TSLPR and IL-7Rα” value in assay [4] amounted to 67 pM. Besides, in assay [7], binding was characterised by a dissociation constant (Kd) of 0.12 nM and the koff was determined as 2e-05 s⁻¹. As for B11, the “EC50 of STAT5 activity (luciferase reporter) induced by TSLP in HEK293T cells expressing WT TSLPR and IL-7Rα” value (shortened to “EC50 of STAT5 activity”) in assay [8] was found to be 0.0028 nM. With B12, the “EC50 of STAT5 activity” value in assay [8] worked out at 0.019 nM.

On to B13, for which the “EC50 of STAT5 activity” value in assay [8] was 0.0095 nM.

Turning to B14, the “EC50 of STAT5 activity” value in assay [8] was determined as 0.1 nM.

What is called stoichiometry N is a count of units in the complex or per binding partner. In general, Kd refers to the free concentration of one partner at which half of the binding sites on the other are occupied at equilibrium, for simple one-to-one binding. Lower therefore signals tighter binding. As a reminder, the koff is a measure of how fast the partners let go of each other. The kon is a measure of how fast the partners come together. Read a low kon as slow association.
